Laboratory results from patent US20260274976A1 (BIO THERA SOLUTIONS, published 2026).

Key:
[1] = target: T1, human OX40 on PG-Jurkat-hOX40-NF-κB cells (human, UniProt P43489 29-277); test: cell-based or functional assay
T1 sequence (looked up): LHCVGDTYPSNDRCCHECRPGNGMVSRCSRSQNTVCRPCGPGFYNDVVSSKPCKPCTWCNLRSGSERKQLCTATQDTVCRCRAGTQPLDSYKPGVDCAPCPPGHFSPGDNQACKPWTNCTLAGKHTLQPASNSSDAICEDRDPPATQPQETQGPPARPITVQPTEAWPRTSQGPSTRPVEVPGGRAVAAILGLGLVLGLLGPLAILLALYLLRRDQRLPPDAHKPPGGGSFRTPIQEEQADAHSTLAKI

[2] = target: T1, human OX40 on PG-Jurkat-hOX40-NF-κB …; test: flow cytometry competition against OX40L-mFc on PG-Jurkat-OX40-NF-κB cells; reference is antibody KHK4083
Description: PG-Jurkat-OX40-NF-κB cells were resuspended in 1×PBS to achieve a density of 1×10⁷ cells/mL. […] PG-Jurkat-OX40-NF-κB cells were plated in sample wells, control wells, and blank wells at 50 μL/well, and the cell count was 5×10⁵ cells/well at this point. Antibody diluents at different concentrations were added to sample wells at 50 μL/well, and the mixture was mixed well. 50 μL of 1×PBS was added to control wells and blank wells. The 96-well V-bottom plate was incubated in a refrigerator at 4° C. for 5 min. […] After the incubation was complete, the 96-well V-bottom plate was taken out. The diluted ligand solution was added to sample wells and control wells at 50 μL/well as soon as possible, and the mixture was mixed well by pipetting. […] The 96-well V-bottom plate was incubated in a refrigerator at 4° C. for 50 min. The plate was washed with 1×PBS, and the supernatant was removed for further incubation.
Anti-mFc APC (Bioss, Cat. No.: BJ01138707) was diluted with 1×PBS at a ratio of 1:800, and 100 μL of the diluted anti-mFc APC was added to each well except for blank wells to resuspend the cells. The plate was incubated in the dark in a refrigerator at 4° C. for 30 min. After the incubation, the cells were washed with 1×PBS and finally resuspended in 1×PBS at 200 μL/well for flow cytometry analysis.

B1: antibody M-KF (antibody, human IgG1, kappa, V domains shown)
VH: QVQLVESGGGVVQPGESLRLSCAASGFTFSSYGMHWVRQAPGKGLEWVAVIWEDGSNQYYADSVKGRFTISRDNSKNTLYLQMNSLRAEDTAVYYCAKDNQDTSPDVGIDYWGQGTLVTVSS
VL: DIQMTQSPSSLSASVGDRVTITCRASQNISPFLNWYQQKPGKAPKLLIYAAVGLQSGVPSRFSGSGSGTDFTLTISSLQPEDFATYYCQQYTDYPLTFGGGTKVEIKR
notes: also called anti-OX40 antibody
fold lower IC50 than antibody KHK4083 in blocking OX40L-mFc activation of OX40 signals (NF-κB luciferase reporter) [1]: 4.8 times
fold lower IC50 than antibody KHK4083 [2]: 2.8 times
